This is an account of results in patent publication US20220112288A1 (published 2022).

A value given as a limit tells only on which side of the number the result lay.

One may read the Kd as the free concentration of one partner at which half of the binding sites on the other are occupied at equilibrium, for simple one-to-one binding. By koff is commonly meant a measure of how fast the partners let go of each other. The kon is the second-order rate constant of association.

Assay [1] has as its target T1, Recombinant human CD4 (R&D Systems, Cat. 10327-CD) (human, UniProt P01730 26-390, limits assumed).
T1 construct: Bought reagent; also called huCD4
In words: BLI Octet, non-clonal supernatant on AMC sensor, 100 nM human CD4.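 Further: hybridoma supernatants diluted 1:3, antibodies captured on AMC biosensors, association and dissociation with CD4 followed, curves smoothed and fit locally with 1:1 binding model for single-point kinetics.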 On the technique in general: BLI is a label-free optical method that tracks binding on a fibre tip over time.

Assay [2] concerns the target T1, Recombinant human CD4 (R&D Systems, …). In words: BLI Octet, non-clonal supernatant on AMC sensor, 100 nM human CD4, 1:1 local fit.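 Further: Single-concentration kinetics per supernatant, with the 1:1 model fitted across both the association and dissociation phases of the sensorgram.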

B1: 75110_04B08A (antibody, V domains shown)
VH: QVQLVESGGGVVQPGRSLRLSCTASGFNFINYGIHWVRQAPGKGLEWVTIIWYDGSKKYYADSVKGRFAISRDNSKNTLYLQMNSLRAEDTAVYYCAREDDWNDGLAYWGQGTLVTVSS
VL: AIQMTQSPSSLSASVGDRVTITCRASQDIRNDLGWYQQKPGKAPNLLIYAASNLQSGVPSRFSGSGSGTDFTLTISSLQPEDFATYYCLQDSNYPRTFGQGTKVEIK
notes: Tested as non-clonal AlivaMab Mouse Kappa hybridoma supernatant, captured by anti-mouse IgG Fc sensor
For the molecule B1, the Response in assay [1] worked out at 0.14. In addition, in assay [2], the Kd was found to be 5.2 nM, the koff was found to be 0.0012 s⁻¹ and the kon is 230000 M⁻¹ s⁻¹.

B2: 75110_03L12A (antibody, V domains shown)
VH: QVQLQQWGAGLLKPSETLSLTCAVYGGSFSGYYWSWIRQPPGKGLEWIGEINHSGSTNYNPSLKSRVTISVDTSENQFSLTLISVTAADTAVYYCVRLINWFDPWGQGTLVTVSS
VL: DIQMTQSPSSVSASVGDRVTITCRASQDISNWLAWYQQKPGKAPKLLIFAASSLQSGVPSRFSGSGSGTDFTLTISSLQPDDFATYYCQQANSFPYTFGQGTNLGIK
notes: as for B1
In the case of B2, the Response in assay [1] was found to be 0.21. In assay [2], the Kd came to 2.8 nM, the koff was determined as 0.00048 s⁻¹ and the kon turned out to be 170000 M⁻¹ s⁻¹.

B3: 75110_06D16A (antibody, V domains shown)
VH: QVQLQQWGAGLLKPSETLSLTCAVYGGSFSGYYWSWIRQPPGKGLEWIGEINHSGSTNYNPSLKSRVTISVVTSKNQFSLKLSSVTAADTAVYYCARVLNWFDPWGQGTLVTVSS
VL: DIQMTQSPSSVSASVGDRVTITCRASQDIADWLAWYQQKPGKAPKLLIYAASSFQSGVPSRFSGSGSGTDFTLTISSLQPEDFATYFCQQANSFPYTFGQGTKLEIK
notes: as for B1
Regarding B3, the Response in assay [1] was 0.09. In assay [2], the Kd was 2.5 nM, the koff came to 0.00047 s⁻¹ and the kon amounted to 190000 M⁻¹ s⁻¹.

B4: 75110_12K21A (antibody, V domains shown)
VH: QVQLQQWGAGLLKPSETLSLTCAVSGGSFSGYYWSWIRQPPGKGLEWIGEINHSGSTNCNPSLKSRVTISVDTSNNQFSLKLSSVTAADTAVYYCARVLNYFDYWGQGTLVTVSS
VL: DIQMTQSPSSVSASVGDRVTITCRASPDIANWLAWYQQKPGKAPELLIYAASSLQSGVPSRFSGSGSGTDFTLTISSLQPEDFATYFCQQANSFPLTFGGGTKVESK
notes: as for B1
Take B4: the Response in assay [1] came out at 0.26. In assay [2], the Kd came out at 3 nM, the koff worked out at 0.0006 s⁻¹ and the kon was 200000 M⁻¹ s⁻¹.

B5: 75110_01D24A (antibody, V domains shown)
VH: QVQLQQWGAGLLKPSETLSLTCAVYGGSFSGYYWSWIRQPPGKGLEWIGEINHSGSTNYNPSLKSRVTISVDTSENQFSLKLNSVTAADTAVYYCARLVNWFDPWGQGTLVTVSS
VL: EIQMTQSPSSVSASVGDRVTITCRASQDISNWLAWYQQKPGKAPNLLIFAASSLQTGVPSRFSGSGSGTDFTLTISSLQPDDFATYYCQQANSFPYSFGQGTNLGIK
notes: as for B1
On to B5, for which the Response in assay [1] came to 0.26. Besides, in assay [2], the Kd was found to be 1.1 nM, the koff was determined as 0.00013 s⁻¹ and the kon was found to be 110000 M⁻¹ s⁻¹.

B6: 75110_02E08A (antibody, V domains shown)
VH: QVQLQESGPGLVKPSETLSLTCTVSGGSISTYYWTWIRQPAGKGLEWIGRVYTSGDTNYNPSLKSRVAMSLDTSKNQFSLKLSSVTAADTAVYYCARDSGALYSWNYGDAFDIWGQGTMVTVSS
VL: DIQMTQSPSAMSASVGDRVTITCRASQDISNYLAWFQQKPGKVPKRLIYAASSLQSGVPSRFSGSGSGTEFTLTISSLQPEDFATYYCLQHNSYPRTFGQGTKVEIK
notes: as for B1
B6: the Response in assay [1] was determined as 0.08. Also, in assay [2], the Kd is 1.5 nM, the koff turned out to be 0.00051 s⁻¹ and the kon is 330000 M⁻¹ s⁻¹.

B7: 75110_09G15A (antibody, V domains shown)
VH: EVQLVESGGGLVQPGGSLRLSCAASGFTFSDYWMSWVRQAPGKGLEWVANINQDGSEKYSVDSVKGRFTISRDNAKNSLYLQMNSLRAEDTAIFYCAREGGQWLALDYWGQGTLVTVSS
VL: DIQMTQSPSSVSASVGDRVTITCRASQGISSWLAWYQQKPGKAPKLLIYGASSLQSGVPSRFSGSGSGTDFTLTINSLQPEDFTTYYCQQANIFPWTFGQGTKVEIK
notes: as for B1
For the molecule B7, the Response in assay [1] was determined as 0.1. Also, in assay [2], the Kd was determined as 290 nM, the koff was determined as 0.011 s⁻¹ and the kon is 37000 M⁻¹ s⁻¹.

B8: 75110_05L07A (antibody, V domains shown)
VH: EVQLVESGGGLVQPGGSLRLSCAASGFTFSSYWMSWVRQAPGKGLEWVANINQDGSDKYYVDSVKGRFTISRDNVKNSLYLQINSLRAEDTAVYYCAREGGQWLTLDYWGQGTLVTVSS
VL: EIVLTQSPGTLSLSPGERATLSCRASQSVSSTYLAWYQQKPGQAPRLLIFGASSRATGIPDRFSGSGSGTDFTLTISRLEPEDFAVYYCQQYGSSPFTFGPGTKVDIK
notes: as for B1
As to B8, the Response in assay [1] amounted to 0.12. For the same molecule, in assay [2], the Kd turned out to be 13 nM, the koff was found to be 0.0014 s⁻¹ and the kon came out at 100000 M⁻¹ s⁻¹.

B9: 75110_03C01A (antibody, V domains shown)
VH: QVQLQQWGAGLLKPSETLSLTCAVYGGSFSGYYWSWIRQSPGKGLEWIGEINQSGSTNYNPSLKSRVTISVDTSKDQFSLKLSSVTAADTAVYYCARVINWFDSWGQGSLVTVSS
VL: DIQMTQSPSSVSASVGDRVTITCRASQGISSWLAWYQQKPGNAPKLLIYDASSFQSGVPSRFSGSGSGTDFTLTISSLQTEDFATYYCQQANSFPYTFGQGTKLEIK
notes: as for B1
Regarding B9, the Response in assay [1] is 0.09. In assay [2], the Kd was less than 0.001 nM, the koff was less than 1e-07 s⁻¹ and the kon came to 150000 M⁻¹ s⁻¹.

B10: 75110_04P08A (antibody, V domains shown)
VH: QVQLQQWGAGLLKPSETLSLTCAVYGGSLSGYYWSWIRQSPGKGLEWIGEINQSGSTNYNPSLKSRVTISVDTSKDQFSLRLTSVTAADTAVYYCTRVLNWFDPWGRGTLVTVSS
VL: DIQMTQSPSSVSASVGDRVTLTCRASQDISNWLAWYQQKPGKAPKLLIYAASSLQSGVPSRFSGSGSGTDFTLTISSLQTEDFATYYCQQANSFPYTFGQGTKLEIK
notes: as for B1
Regarding B10, the Response in assay [1] stood at 0.17. Besides, in assay [2], the Kd came out at 1.8 nM, the koff came to 0.00022 s⁻¹ and the kon was found to be 120000 M⁻¹ s⁻¹.

B11: 75110_01J09A (antibody, V domains shown)
VH: EVQLVESGGGLVQPGGSLRLSCVASGFTFSSYWMSWVRQAPGKGLEWVANTKEDGSDKYYVDSVKGRFTICRDNAKNSLYLQMNSLRAEDTAVYYCAREGGQWLALDYWGQGTLVTVSS
VL: DIQMTQSPSSVSASVGDRVTINCRASQGISSWLAWYQQKPGKAPNLLIFGASSLQSGVPSRFSGSGFGTDFSLTITTLQPEDFATYHCQQANSFPWTFGQGTKVEIK
notes: as for B1
Consider B11, for which the Response in assay [1] worked out at 0.28. Also, in assay [2], the Kd came out at 11 nM, the koff was determined as 0.0013 s⁻¹ and the kon was found to be 120000 M⁻¹ s⁻¹.

B12: 75110_05B13A (antibody, V domains shown)
VH: QVLLEQWGAGLLKPSETLSLTCAVYGGSFSGYYWTWIRQPPGKGLEWIGEINHRGSTNYNPSLKSRVTISIDTSKNQFSLKVKSVTAADTAMYYCTRPDSNWFDPWGQGTLVTVSS
VL: DIQMTQSPSSVSASVGDRVTITCRASQDISNWLAWYQQKPGKAPKLLIFAASSLQSGVPSRFSGSGSGTDFTLTISSLQPEDFATYYCQQANSFPLTFGGGTKVEIK
notes: as for B1
Take B12: the Response in assay [1] came to 0.03. Also, in assay [2], the Kd is less than 0.001 nM, the koff is less than 1e-07 s⁻¹ and the kon turned out to be 200000 M⁻¹ s⁻¹.

B13: 75110_12H19A (antibody, V domains shown)
VH: EVQLVESGGGLVQPGGSLRLSCAASGFTFSSYWMSWVRQAPGQGLEWVANINEDGNEKYHVDSVKGRLTISRDNAKNSLYLQMNSLRGVDTAVYFCAREGGQWLALDYWGQGALVTVSS
VL: DIQMTQSPSSVSASVGDRVSITCRASQGISSWLAWYQQKPGKAPKLLIYGASGLQSGVPSRFSGSGSGTDFTLTISSLQPEDFATYYCQQANSFPWTFGQGTKVEIK
notes: as for B1
For B13, in assay [1], the Response amounted to 0.09. In addition, in assay [2], the equilibrium dissociation constant (Kd) stood at 4.2 nM, the off-rate (koff) came to 0.0012 s⁻¹ and the kon was 290000 M⁻¹ s⁻¹.

B14: 75110_09N20A (antibody, V domains shown)
VH: EVQLVESGGGLVQPGGSLRLSCAASGFTFSSYWMSWVRQAPGKGLEWVANINEDGSEKYYVDSVKGRFTISRDNAKNSLYLQMNSLRAEDTAVYYCVREGGQWLALDYWGQGTLVTVSS
VL: DIQMTQSPSSVSASVGDRVTITCRASQGISSWLAWYQQKPGKAPKLLIYAASSLQSGVPSSFSGSGSGTDFTLTINSLQPEDFATYYCQQANSFPWTFGQGTKVAIK
notes: as for B1
For the molecule B14, in assay [1], the Response was determined as 0.13. Besides, in assay [2], the Kd amounted to 15 nM, the koff was 0.0019 s⁻¹ and the kon is 130000 M⁻¹ s⁻¹.

B15: 75110_07B16A (antibody, V domains shown)
VH: QVQLQQWGAGLLKPSETLSLTCAVYGGSFSGYYWSWIRQSPGKGLEWIGEINQSGSTNYNPSLKSRVTISVDTSKDQFSLKLSSVTAADTAVYYCARVINWFDSWGQGSLVTVSS
VL: DIQMTQSPSSVSASVGDRVTITCRASQGISSWLAWYQQKPGKAPKLLIYDASSFQSGVPSRFSGSGSGTDFTLTISSLQTDDFATYYCQQANSFPYTFGQGTKLEIK
notes: as for B1
With B15, the Response in assay [1] was 0.21. Further, in assay [2], the Kd was determined as 0.79 nM, the koff was 0.00013 s⁻¹ and the kon was found to be 160000 M⁻¹ s⁻¹.

B16: 75110_12C19A (antibody, V domains shown)
VH: EVQLVESGGGLVQPGGSLRLSCAASGFTFSSYWMSWVRQAPGKGLEWVANIKEDGSDKYYVDSVKGRFTISRDNAKNSLYLQMNSLRAEDTAVHYCVREGGQWLALDYWGQGTLVTVSS
VL: DIQMTQSPSSVSGSVGDRVTITCRASQGISSWLAWYQQKPGKAPKLLIYGASSLQSGVPSRFSGSGSGTDFTLTISSLQPEDFVTYYCQQANSFPWTFGQGTKVEIK
notes: as for B1
Turning to B16, the Response in assay [1] was determined as 0.106. In assay [2], the Kd is 0.627 nM, the koff was found to be 9.63e-05 s⁻¹ and the kon stood at 154000 M⁻¹ s⁻¹.

B17: 75110_12H17A (antibody, V domains shown)
VH: EVQLVESGGGLVQPGGSLRLSCAASGFTFSDYWMSWVRQAPGKGLEWVANIKEDGNEKYYVDSVKGRFTISRDNAKNSLFLQMNSLRAEDTAVYYCAREGGQWLALDYWGQGALVTVSS
VL: DIQMTQSPSSVSASVGDRVTITCRASQGISSWLAWYQQKPGKAPKFLISGASSLQSGVPSRFTGSGSGTDFTLTISSLQPEDFATYYCQQANSFPWTFGQGTKVEIK
notes: as for B1
Take B17: the Response in assay [1] was 0.09. Moreover, in assay [2], the Kd was determined as 9.6 nM, the koff amounted to 0.0032 s⁻¹ and the kon is 330000 M⁻¹ s⁻¹.
